Biological target: the molecule itself
Test: SEC

B1: Saccharomyces cerevisiae dUTP pyrophosphatase DUT1 (enzyme, S. cerevisiae)
chain: MTATSDKVLKIQLRSASATVPTKGSATAAGYDIYASQDITIPAMGQGMVSTDISFTVPVGTYGRIAPRSGLAVKNGIQTGAGVVDRDYTGEVKVVLFNHSQRDFAIKKGDRVAQLILEKIVDDAQIVVVDSLEESARGAGGFGSTGN
- stoichiometry N: 3

From PMC4671291 (The Biochemical journal, 2011)
